Laboratory results: paper PMC8391806, “Enthalpy–Entropy Compensation in the Promiscuous Interaction of an Intrinsically Disordered Protein with Homologous Protein Partners” (Biomolecules, 2021)

B1: regulatory domain of MKK4 (residues 12–86 of human MKK4), 15N-labeled, for NMR (domain or fragment, UniProt P45985 12-86, looked up)
chain: SGGGSGSGTPGPVGSPAPGHPAVSSMQGKRKALKLNFANPPFKSTARFTLNPNPTGVQNPHIERLRTHSIESSGK
notes: Uniformly 15N-labeled for NMR; also called intrinsically disordered regulatory domain of MKK4; source: expressed and purified as described previously [34,35]
B2: regulatory domain of MKK4 (residues 12–86) with N-terminal thioredoxin and 6xHis tag, unlabeled, for ITC (domain or fragment, human, UniProt P45985 12-86, looked up)
chain: B1 chain
notes: source: expressed and purified as described previously [34,35]; size-exclusion chromatography in the ITC buffer; not shown: thioredoxin, N-terminal, kept; His6, N-terminal, kept

Assays:
Details in all cases: both partners purified
[1] = target: T1, p38α kinase (residues 1–360 of human p38α) (human, UniProt Q16539 1-360); assay: NMR 15N CEST and CPMG relaxation dispersion + ITC; on-rate worked out from the off-rate of the NMR exchange analysis and the dissociation constant of ITC (ITC of ref. 35)
T1 construct: source: expressed and purified as described previously [34,35]
T1 sequence (Q16539 whole entry, the tested form may be a part): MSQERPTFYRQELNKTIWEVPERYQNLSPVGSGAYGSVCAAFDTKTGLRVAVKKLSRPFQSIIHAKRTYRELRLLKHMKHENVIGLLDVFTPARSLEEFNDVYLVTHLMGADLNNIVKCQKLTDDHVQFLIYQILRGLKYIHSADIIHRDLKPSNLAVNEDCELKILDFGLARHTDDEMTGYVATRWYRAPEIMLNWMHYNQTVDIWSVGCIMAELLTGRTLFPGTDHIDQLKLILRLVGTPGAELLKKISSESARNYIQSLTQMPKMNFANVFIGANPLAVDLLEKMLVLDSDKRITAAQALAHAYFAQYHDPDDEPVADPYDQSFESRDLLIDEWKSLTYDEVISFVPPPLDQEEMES

[2] = target: T2, JNK1 kinase (residues 1–364 of human JNK1 (isoform α1) with a C-terminal 6xHis tag) (human, UniProt P45983 1-364); assay: NMR 15N CEST; 250 μM 15N MKK4 with 10% molar ratio of JNK1; 5 °C; 50 mM HEPES pH 7.1, 150 mM NaCl, 2 mM DTT, 5% glycerol; two-site exchange model (ChemEx)
T2 construct: Human JNK1 (c-Jun N-terminal kinase 1), isoform α1, residues 1-364; source: expressed and purified as described previously [34,35]
T2 sequence (P45983 1-364): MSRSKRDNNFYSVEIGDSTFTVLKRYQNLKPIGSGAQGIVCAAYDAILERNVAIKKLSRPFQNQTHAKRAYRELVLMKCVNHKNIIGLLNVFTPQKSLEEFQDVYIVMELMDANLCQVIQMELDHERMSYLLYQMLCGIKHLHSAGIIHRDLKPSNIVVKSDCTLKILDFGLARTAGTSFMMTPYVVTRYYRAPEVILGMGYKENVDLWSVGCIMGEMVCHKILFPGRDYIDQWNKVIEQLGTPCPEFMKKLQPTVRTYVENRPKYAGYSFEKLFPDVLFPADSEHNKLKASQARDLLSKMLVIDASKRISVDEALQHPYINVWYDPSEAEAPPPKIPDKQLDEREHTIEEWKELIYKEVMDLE

[3] = target: T2, JNK1 kinase (residues 1–364 of human …); assay: NMR 15N CEST + ITC; on-rate worked out from the off-rate of CEST (5 °C) and the dissociation constant of ITC (20 °C)
[4] = target: T1, p38α kinase (residues 1–360 of human …); assay: NMR 15N CEST and CPMG relaxation dispersion; 247 μM 15N MKK4 with 6% molar ratio of p38α; data acquired previously [35], analysed here with a two-site exchange model
[5] = target: T2, JNK1 kinase (residues 1–364 of human …); assay: ITC; MKK4 (570 μM, with thioredoxin and 6xHis tag) titrated into JNK1 (42 μM); 20 °C; 50 mM HEPES pH 8.2, 150 mM NaCl, 10% glycerol, 0.5 mM TCEP; model of n identical and independent sites

| Binder | kon [1] | koff [2] | population of the bound state (10% molar ratio of JNK1) [2] | kon [3] | koff [4] | population of the bound state (6% molar ratio of p38α) [4] | Kd [5] | stoichiometry N [5] |
| --- | --- | --- | --- | --- | --- | --- | --- | --- |
| B1 | 5.01e+07 M⁻¹ s⁻¹ | 90 s⁻¹ | 8.7 ± 0.1% | 6.95e+07 M⁻¹ s⁻¹ | 205 s⁻¹ | 6.2 ± 0.1% | – | – |
| B2 | – | – | – | – | – | – | 1.3 µM | 1 |
